Measurements from patent US20250009808A1.

Molecular target: rat RT1A class I histocompatibility antigen (rat (Rattus norvegicus)) (UniProt P16391)
Experiment: heterogeneous rat liver cells incubated with antibody; cell count of retained versus flow-through fractions

Sequence of UniProt P16391 (P16391 25-371 limits assumed): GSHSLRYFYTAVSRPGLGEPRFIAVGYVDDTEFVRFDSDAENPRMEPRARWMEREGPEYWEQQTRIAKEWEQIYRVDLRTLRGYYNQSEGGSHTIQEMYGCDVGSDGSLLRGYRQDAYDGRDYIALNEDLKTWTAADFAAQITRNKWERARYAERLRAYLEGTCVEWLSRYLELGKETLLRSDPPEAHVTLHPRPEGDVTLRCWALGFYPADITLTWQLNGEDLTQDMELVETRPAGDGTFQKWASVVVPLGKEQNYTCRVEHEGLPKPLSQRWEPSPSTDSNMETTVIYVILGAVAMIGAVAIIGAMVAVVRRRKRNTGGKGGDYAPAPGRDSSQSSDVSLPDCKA

| percent of total cells in the population bound | Substance |
| --- | --- |
| > 60% | anti-RT1A monoclonal antibody IgG1 clone F16-4-4 |
| < 10% | anti-RT1A monoclonal antibody IgG2a MRC clone OX-27 |
| 60% | anti-RT1A monoclonal antibody IgG1 MRC clone OX-18 |
